Data on eight molecules can be found in patent US11278600B2, “Human alpha-galactosidase variants” (Codexis, Inc., priority 2014, dated 2022).

Assay type in all cases: biochemical
Data set [1] in a line: HTP-analysis of yeast culture supernatants, no challenge (MUGal hydrolysis). As to conditions: activity of the variant/activity of WT GLA (SEQ ID NO: 5), yeast supernatant. Summed up: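 Activity read as 4-methylumbelliferyl α-D-galactopyranoside hydrolysis: fluorescence (355/448 nm) after sodium carbonate stop, following 30-180 min at 37° C with 2 mM MUGal stock at pH 4.6–4.8. Enzyme source is unchallenged culture supernatant of INVSc1 yeast expressing GLA variants, grown 66-84 h at 30° C.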

Data set [2] in a line: HTP-analysis of supernatants pretreated with acid (MUGal hydrolysis). As to conditions: challenge at pH 4.2; activity of the variant/activity of WT GLA (SEQ ID NO: 5); yeast supernatant. A digest of the protocol: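 GLA variants were secreted from INVSc1 yeast grown 66-84 h at 30° C. in SD-Ura with 2% glucose; supernatants were mixed with McIlvaine buffer pH 3.3-4.3 and held at 37° C. for 1-3 h. Residual activity on MUGal at pH 4.8 was then measured by fluorescence.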

The nature of data set [3]: HTP-analysis of supernatants pretreated with base (MUGal hydrolysis). As to conditions: challenge at pH 7.1; activity of the variant/activity of WT GLA (SEQ ID NO: 5); yeast supernatant. Summed up:
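GLA variants secreted from yeast INVSc1; culture supernatants pre-incubated with McIlvaine buffer pH 7.0–8.2 or 200 mM bicarbonate pH 9.1–9.7 at 37° C. for 1–18 h. Residual activity: MUGal (4 mM stock) hydrolysis at pH 4.3–4.8, 37° C., 30–180 min, carbonate quench; fluorescence Ex 355/Em 448 nm.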

B1: 114 (protein)
chain: LDNGLARTPTMGWLHWERFMCNLDCQEEPDSCISEKLFMEMAELMVSEGWKDAGYEYLCIDDCWMAPQRDSEGRLQADPQRFPHGIRQLANYVHSKGLKLGIYADVGNKTCAGFPGSFGYYDIDAQTFADWGVDLLKFDGCYCDSLENLADGYKHMSLALNRTGRSIVYSCEWPLYMWPFQKPNYTEIRQYCNHWRNFADIDDSWKSIKSILDWTSFNQERIVDVAGPGGWNDPDMLVIGNFGLSWNQQVTQMALWAIMAAPLFMSNDLRHISPQAKALLQDKDVIAINQDPLGKQGYQLRQGDNFEVWERPLSGLAWAVAMINRQEIGGPRSYTIAVASLGKGVACNPACFITQLLPVKRKLGFYEWTSRLRSHINPTGTVLLQLENTMQMSKDLRL
modifications: Synthetic Polypeptide sequence of Variant No. 114 of mature Human GLA
For the molecule B1, in data set [1], the “Relative Activity of GLA Variants After No Challenge (NC)” value is given as “++ (++ = >1.5 to 2.5 relative activity over WT GLA (SEQ ID NO: 5))”. Further, the “Relative Activity of GLA Variants After Challenge at pH 4.2” value (from here on “Relative Activity … at pH 4.2”) in data set [2] is “++ (++ = >1.5 to 2.5 relative activity over WT GLA (SEQ ID NO: 5))”. The “Relative Activity of GLA Variants After Challenge at pH 7.1” value (shortened to “Relative Activity … at pH 7.1”) in data set [3] is recorded as “++ (++ = >1.5 to 2.5 relative activity over WT GLA (SEQ ID NO: 5))”.

B2: 117 (protein)
chain: LDNGLARTPTMGWLHWERFMCNLDCQEEPDSCISEKLFMEMAELMVSEGWKDAGYEYLCIDDCWMAPQRDSEGRLQADPQRFPHGIRQLANYVHSKGLKLGIYADVGNKTCAGFPGSFGYYDIDAQTFADWGVDLLKFDGCYCDSLENLADGYKHMSLALNRTGRSIVYSCEWPLYMWPFQKPNYTEIRQYCNHWRNFADIDDSWKSIKSILDWTSFNQERIVDVAGPGGWNDPDMLVIGNFGLSWNQQVTQMALWAIMAAPLFMSNDLRHISPQAKALLQDKDVIAINQDPLGKQGYQLRQGDNFEVWERPLSGLAWAVAMINRQEIGGPRSYTIAVASLGKGVACNPACFITQLLPVKRKLGFYEWTSRLRSHINPTGTVLLQLENTMQMSKDLLG
modifications: Synthetic Polypeptide sequence of Variant No. 117 of mature Human GLA
As for B2, in data set [1], the “Relative Activity of GLA Variants After No Challenge (NC)” value is recorded as “++ (++ = >1.5 to 2.5 relative activity over WT GLA (SEQ ID NO: 5))”. Besides, the “Relative Activity … at pH 4.2” value in data set [2] is on record as “++ (++ = >1.5 to 2.5 relative activity over WT GLA (SEQ ID NO: 5))”. Further, the “Relative Activity … at pH 7.1” value in data set [3] was “++ (++ = >1.5 to 2.5 relative activity over WT GLA (SEQ ID NO: 5))”.

B3: 121 (protein)
chain: LDNGLARTPTMGWLHWERFMCNLDCQEEPDSCISEKLFMEMAERMVSEGWKDAGYEYLCIDDCWMAPQRDSEGRLQADPQRFPHGIRQLANYVHSKGLKLGIYADVGNKTCAGFPGSFGYYDIDAQTFADWGVDLLKFDGCYCDSLENLADGYKHMSLALNRTGRSIVYSCEWPLYMWPFQKPNYTEIRQYCNHWRNFADIDDSWKSIKSILDWTSFNQERIVDVAGPGGWNDPDMLVIGNFGLSWNQQVTQMALWAIMAAPLFMSNDLRHISPQAKALLQDKDVIAINQDPLGKQGYQLRQGDNFEVWERPLSGLAWAVAMINRQEIGGPRSYTIAVASLGKGVACNPACFITQLLPVKRKLGFYEWTSRLRSHINPTGTVLFQLENTMQMSKDLLL
modifications: Synthetic Polypeptide sequence of Variant No. 121 of mature Human GLA
For B3, the “Relative Activity of GLA Variants After No Challenge (NC)” value in data set [1] was “+ (+ = 0.5 to 1.5 relative activity over WT GLA (SEQ ID NO: 5))”. The “Relative Activity … at pH 4.2” value in data set [2] is given as “++ (++ = >1.5 to 2.5 relative activity over WT GLA (SEQ ID NO: 5))”. Further, the “Relative Activity … at pH 7.1” value in data set [3] was “++ (++ = >1.5 to 2.5 relative activity over WT GLA (SEQ ID NO: 5))”.

B4: 116 (protein)
chain: LDNGLARTPTMGWLHWERFMCNLDCQEEPDSCISEKLFMEMAELMVSEGWKDAGYEYLCIDDCWMAPQRDSEGRLQADPQRFPHGIRQLANYVHSKGLKLGIYADVGNKTCAGFPGSFGYYDIDAQTFADWGVDLLKFDGCYCDSLENLADGYKHMSLALNRTGRSIVYSCEWPLYMWPFQKPNYTEIRQYCNHWRNFADIDDSWKSIKSILDWTSFNQERIVDVAGPGGWNDPDMLVIGNFGLSWNQQVTQMALWAIMAAPLFMSNDLRHISPQAKALLQDKDVIAINQDPLGKQGYQLRQGDNFEVWERPLSGLAWAVAMINRQEIGGPRSYTIAVASLGKGVACNPACFITQLLPVKRKLGFYEWTSRLRSHINPTGTVLLQLENTMQMSKDLLE
modifications: Synthetic Polypeptide sequence of Variant No. 116 of mature Human GLA
As to B4, the “Relative Activity of GLA Variants After No Challenge (NC)” value in data set [1] was “++ (++ = >1.5 to 2.5 relative activity over WT GLA (SEQ ID NO: 5))”. Moreover, the “Relative Activity … at pH 4.2” value in data set [2] was “++ (++ = >1.5 to 2.5 relative activity over WT GLA (SEQ ID NO: 5))”. Also, in data set [3], the “Relative Activity … at pH 7.1” value is recorded as “++ (++ = >1.5 to 2.5 relative activity over WT GLA (SEQ ID NO: 5))”.

B5: 115 (protein)
chain: LDNGLARTPTMGWLHWERFMCNLDCQEEPDSCISEKLFMEMAELMVSEGWKDAGYEYLCIDDCWMAPQRDSEGRLQADPQRFPHGIRQLANYVHSKGLKLGIYADVGNKTCAGFPGSFGYYDIDAQTFADWGVDLLKFDGCYCDSLENLADGYKHMSLALNRTGRSIVYSCEWPLYMWPFQKPNYTEIRQYCNHWRNFADIDDSWKSIKSILDWTSFNQERIVDVAGPGGWNDPDMLVIGNFGLSWNQQVTQMALWAIMAAPLFMSNDLRHISPQAKALLQDKDVIAINQDPLGKQGYQLRQGDNFEVWERPLSGLAWAVAMINRQEIGGPRSYTIAVASLGKGVACNPACFITQLLPVKRKLGFYEWTSRLRSHINPTGTVLLQLENTMQMSKDLTL
modifications: Synthetic Polypeptide sequence of Variant No. 115 of mature Human GLA
For the molecule B5, the “Relative Activity of GLA Variants After No Challenge (NC)” value in data set [1] is given as “++ (++ = >1.5 to 2.5 relative activity over WT GLA (SEQ ID NO: 5))”. Also, the “Relative Activity … at pH 4.2” value in data set [2] is “++ (++ = >1.5 to 2.5 relative activity over WT GLA (SEQ ID NO: 5))”. For the same molecule, the “Relative Activity … at pH 7.1” value in data set [3] was “+++ (+++ = >2.5 relative activity over WT GLA (SEQ ID NO: 5))”.

B6: 120 (protein)
chain: LDNGLARTPTMGWLHWERFMCNLDCQEEPDSCISEKLFMEMAELMVSEGWKDAGYEYLCIDDCWMAPQRDSEGRLQADPQRFPHGIRQLANYVHSKGLKLGIYADVGNKTCAGFPGSFGYYDIDAQTFADWGVDLLKFDGCYCDSLENLADGYKHMSLALNRTGRSIVYSCEWPLYMWPFQKPNYTEIRQYCNHWRNFADIDDSWKSIKSILDWTSFNQERIVDVAGPGGWNDPDMLVIGNFGLSWNQQVTQMALWAIMAAPLFMSNDLRHISPQAKALLQDKDVIAINQDPLGKQGYQLRQGDNFEVWERPLSGLAWAVAMINRQEIGGPRSYTIAVASLGKGVACNPACFITQLLPVKRKLGFYEWTSRLRSHINPTGTVLLQLENTMQMSKDLLR
modifications: Synthetic Polypeptide sequence of Variant No. 120 of mature Human GLA
On to B6, for which the “Relative Activity of GLA Variants After No Challenge (NC)” value in data set [1] is recorded as “++ (++ = >1.5 to 2.5 relative activity over WT GLA (SEQ ID NO: 5))”. Also, in data set [2], the “Relative Activity … at pH 4.2” value is given as “++ (++ = >1.5 to 2.5 relative activity over WT GLA (SEQ ID NO: 5))”. Also, the “Relative Activity … at pH 7.1” value in data set [3] is on record as “++ (++ = >1.5 to 2.5 relative activity over WT GLA (SEQ ID NO: 5))”.

B7: 119 (protein)
chain: LDNGLARTPTMGWLHWERFMCNLDCQEEPDSCISEKLFMEMAELMVSEGWKDAGYEYLCIDDCWMAPQRDSEGRLQADPQRFPHGIRQLANYVHSKGLKLGIYADVGNKTCAGFPGSFGYYDIDAQTFADWGVDLLKFDGCYCDSLENLADGYKHMSLALNRTGRSIVYSCEWPLYMWPFQKPNYTEIRQYCNHWRNFADIDDSWKSIKSILDWTSFNQERIVDVAGPGGWNDPDMLVIGNFGLSWNQQVTQMALWAIMAAPLFMSNDLRHISPQAKALLQDKDVIAINQDPLGKQGYQLRQGDNFEVWERPLSGLAWAVAMINRQEIGGPRSYTIAVASLGKGVACNPACFITQLLPVKRKLGFYEWTSRLRSHINPTGTVLLQLENTMQMSKDLLQ
modifications: Synthetic Polypeptide sequence of Variant No. 119 of mature Human GLA
Take B7: the “Relative Activity of GLA Variants After No Challenge (NC)” value in data set [1] is listed as “++ (++ = >1.5 to 2.5 relative activity over WT GLA (SEQ ID NO: 5))”. The “Relative Activity … at pH 4.2” value in data set [2] is on record as “++ (++ = >1.5 to 2.5 relative activity over WT GLA (SEQ ID NO: 5))”. The “Relative Activity … at pH 7.1” value in data set [3] is on record as “++ (++ = >1.5 to 2.5 relative activity over WT GLA (SEQ ID NO: 5))”.

B8: 118 (protein)
chain: LDNGLARTPTMGWLHWERFMCNLDCQEEPDSCISEKLFMEMAELMVSEGWKDAGYEYLCIDDCWMAPQRDSEGRLQADPQRFPHGIRQLANYVHSKGLKLGIYADVGNKTCAGFPGSFGYYDIDAQTFADWGVDLLKFDGCYCDSLENLADGYKHMSLALNRTGRSIVYSCEWPLYMWPFQKPNYTEIRQYCNHWRNFADIDDSWKSIKSILDWTSFNQERIVDVAGPGGWNDPDMLVIGNFGLSWNQQVTQMALWAIMAAPLFMSNDLRHISPQAKALLQDKDVIAINQDPLGKQGYQLRQGDNFEVWERPLSGLAWAVAMINRQEIGGPRSYTIAVASLGKGVACNPACFITQLLPVKRKLGFYEWTSRLRSHINPTGTVLLQLENTMQMSKDLLN
modifications: Synthetic Polypeptide sequence of Variant No. 118 of mature Human GLA
On to B8, for which the “Relative Activity of GLA Variants After No Challenge (NC)” value in data set [1] is listed as “++ (++ = >1.5 to 2.5 relative activity over WT GLA (SEQ ID NO: 5))”. The “Relative Activity … at pH 4.2” value in data set [2] is “++ (++ = >1.5 to 2.5 relative activity over WT GLA (SEQ ID NO: 5))”. In addition, in data set [3], the “Relative Activity … at pH 7.1” value is listed as “++ (++ = >1.5 to 2.5 relative activity over WT GLA (SEQ ID NO: 5))”.
